Drawing on paper PMC10046250, this text covers CCK concentration needed to induce regular cytosolic calcium oscillations (Fura-2 imaging) in perifused isolated mouse pancreatic acini (data in Figure S1) for 1 molecule.

The target of the experiment is T1, mouse cholecystokinin 1 receptor (mouse (endogenous in isolated mouse pancreatic acini)) (UniProt O08786).
T1 sequence: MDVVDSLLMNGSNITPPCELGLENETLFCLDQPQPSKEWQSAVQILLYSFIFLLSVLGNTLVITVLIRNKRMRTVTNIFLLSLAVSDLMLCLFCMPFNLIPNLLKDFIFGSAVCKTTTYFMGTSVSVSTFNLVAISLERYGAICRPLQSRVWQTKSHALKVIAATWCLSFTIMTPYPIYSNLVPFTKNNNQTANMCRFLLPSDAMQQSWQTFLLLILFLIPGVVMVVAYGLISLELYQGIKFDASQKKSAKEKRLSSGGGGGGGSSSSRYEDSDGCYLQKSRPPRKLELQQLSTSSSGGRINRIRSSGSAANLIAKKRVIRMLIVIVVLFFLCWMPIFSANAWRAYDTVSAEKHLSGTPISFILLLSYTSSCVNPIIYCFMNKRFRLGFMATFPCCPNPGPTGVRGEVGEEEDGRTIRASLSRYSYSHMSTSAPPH

Where no end group is shown, it is not given here. [ ]: non-standard residue; d: D form. sY = N[C@@H](Cc1ccc(OS(=O)(=O)O)cc1)C(=O)O

On to D[sY]MGWMDF-NH2 (ends and bridges not checked) [Sulfated cholecystokinin octapeptide], for which the CCK concentration needed to induce regular cytosolic calcium oscillations (Fura-2 imaging) in perifused isolated mouse pancreatic acini (data in Figure S1) was found to be 10 pM.
